According to the supplement of paper PMC10065799, “High-throughput profiling of sequence recognition by tyrosine kinases and SH2 domains using bacterial peptide display” (eLife, 2023):

How the values were obtained:
EPHB1 = EPHB1 (UniProt P54762); assay: phosphorylation enrichment, bacterial display (enrichment ratio); higher = better substrate or ligand; peptides without Tyr show the background
Fer (mouse) = assay: as above
c-Abl (mouse) = assay: as above
AncSZ = assay: as above
Hck = Hck (UniProt P08631); assay: as above
Hck, sequence (P08631 whole entry, looked up): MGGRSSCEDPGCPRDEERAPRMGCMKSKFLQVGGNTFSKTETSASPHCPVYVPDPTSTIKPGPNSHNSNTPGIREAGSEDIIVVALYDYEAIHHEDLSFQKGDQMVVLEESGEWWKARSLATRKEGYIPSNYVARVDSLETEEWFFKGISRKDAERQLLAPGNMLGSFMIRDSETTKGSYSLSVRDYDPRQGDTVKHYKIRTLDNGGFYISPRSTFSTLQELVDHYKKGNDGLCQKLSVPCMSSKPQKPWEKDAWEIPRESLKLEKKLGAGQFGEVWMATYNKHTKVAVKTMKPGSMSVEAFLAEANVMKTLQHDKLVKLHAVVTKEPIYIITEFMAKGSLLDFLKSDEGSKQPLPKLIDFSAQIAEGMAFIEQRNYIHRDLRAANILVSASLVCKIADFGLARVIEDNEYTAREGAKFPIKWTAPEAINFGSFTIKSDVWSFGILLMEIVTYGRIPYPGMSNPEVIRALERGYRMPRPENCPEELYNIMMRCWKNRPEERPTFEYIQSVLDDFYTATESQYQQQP

MERTK = MERTK (UniProt Q12866); assay: as above
MERTK, sequence (Q12866 whole entry, looked up): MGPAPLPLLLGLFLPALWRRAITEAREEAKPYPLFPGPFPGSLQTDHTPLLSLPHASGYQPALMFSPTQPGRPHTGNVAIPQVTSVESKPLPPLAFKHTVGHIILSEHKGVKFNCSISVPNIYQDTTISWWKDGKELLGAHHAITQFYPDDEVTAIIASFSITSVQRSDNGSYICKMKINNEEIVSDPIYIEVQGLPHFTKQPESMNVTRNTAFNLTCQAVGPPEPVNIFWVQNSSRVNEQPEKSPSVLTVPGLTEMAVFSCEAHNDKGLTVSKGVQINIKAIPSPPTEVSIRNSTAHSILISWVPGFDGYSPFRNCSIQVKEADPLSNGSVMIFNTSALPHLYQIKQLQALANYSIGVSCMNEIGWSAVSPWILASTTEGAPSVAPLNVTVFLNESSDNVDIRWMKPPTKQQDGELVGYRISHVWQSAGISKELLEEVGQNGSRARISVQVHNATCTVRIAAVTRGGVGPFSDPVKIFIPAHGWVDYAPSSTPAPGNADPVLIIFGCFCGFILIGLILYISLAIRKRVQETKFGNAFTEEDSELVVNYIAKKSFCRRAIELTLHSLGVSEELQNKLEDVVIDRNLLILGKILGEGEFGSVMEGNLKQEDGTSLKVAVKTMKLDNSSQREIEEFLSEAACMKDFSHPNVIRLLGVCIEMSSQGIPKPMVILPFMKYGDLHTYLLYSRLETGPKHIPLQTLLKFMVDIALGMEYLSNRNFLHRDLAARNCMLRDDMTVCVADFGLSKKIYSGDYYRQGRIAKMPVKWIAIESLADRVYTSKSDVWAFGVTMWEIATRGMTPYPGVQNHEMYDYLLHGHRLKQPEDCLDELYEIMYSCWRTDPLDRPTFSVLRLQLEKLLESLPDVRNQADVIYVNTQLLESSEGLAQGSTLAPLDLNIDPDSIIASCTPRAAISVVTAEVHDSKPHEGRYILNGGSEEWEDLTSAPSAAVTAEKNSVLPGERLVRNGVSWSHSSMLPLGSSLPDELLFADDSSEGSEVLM

Jak2 = Jak2 (UniProt O60674); assay: as above
FGFR1 = FGFR1 (UniProt P11362); assay: as above
FGFR1, sequence (P11362 whole entry, looked up): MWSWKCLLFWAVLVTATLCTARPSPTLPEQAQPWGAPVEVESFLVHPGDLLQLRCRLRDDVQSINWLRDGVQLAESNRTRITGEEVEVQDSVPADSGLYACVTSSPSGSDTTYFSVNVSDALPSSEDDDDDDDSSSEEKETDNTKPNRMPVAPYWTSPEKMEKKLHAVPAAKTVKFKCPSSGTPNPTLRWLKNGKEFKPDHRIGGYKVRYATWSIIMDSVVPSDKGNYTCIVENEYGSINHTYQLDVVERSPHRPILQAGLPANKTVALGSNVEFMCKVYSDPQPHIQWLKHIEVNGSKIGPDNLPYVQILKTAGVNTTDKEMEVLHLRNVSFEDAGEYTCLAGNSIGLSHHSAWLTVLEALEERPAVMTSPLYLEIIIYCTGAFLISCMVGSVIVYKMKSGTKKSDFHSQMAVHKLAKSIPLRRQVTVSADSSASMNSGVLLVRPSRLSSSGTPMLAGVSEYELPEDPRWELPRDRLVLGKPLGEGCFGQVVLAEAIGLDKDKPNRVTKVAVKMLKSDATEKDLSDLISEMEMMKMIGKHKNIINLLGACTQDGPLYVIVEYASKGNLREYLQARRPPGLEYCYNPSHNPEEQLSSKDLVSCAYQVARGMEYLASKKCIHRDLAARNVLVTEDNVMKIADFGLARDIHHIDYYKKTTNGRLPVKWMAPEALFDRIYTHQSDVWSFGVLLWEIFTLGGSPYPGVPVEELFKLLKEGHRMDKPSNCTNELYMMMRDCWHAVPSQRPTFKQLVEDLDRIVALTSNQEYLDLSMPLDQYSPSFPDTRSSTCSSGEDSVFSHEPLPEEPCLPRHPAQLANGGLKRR

EPHB2 = EPHB2 (UniProt P29323); assay: as above
EPHB2, sequence (P29323 whole entry, looked up): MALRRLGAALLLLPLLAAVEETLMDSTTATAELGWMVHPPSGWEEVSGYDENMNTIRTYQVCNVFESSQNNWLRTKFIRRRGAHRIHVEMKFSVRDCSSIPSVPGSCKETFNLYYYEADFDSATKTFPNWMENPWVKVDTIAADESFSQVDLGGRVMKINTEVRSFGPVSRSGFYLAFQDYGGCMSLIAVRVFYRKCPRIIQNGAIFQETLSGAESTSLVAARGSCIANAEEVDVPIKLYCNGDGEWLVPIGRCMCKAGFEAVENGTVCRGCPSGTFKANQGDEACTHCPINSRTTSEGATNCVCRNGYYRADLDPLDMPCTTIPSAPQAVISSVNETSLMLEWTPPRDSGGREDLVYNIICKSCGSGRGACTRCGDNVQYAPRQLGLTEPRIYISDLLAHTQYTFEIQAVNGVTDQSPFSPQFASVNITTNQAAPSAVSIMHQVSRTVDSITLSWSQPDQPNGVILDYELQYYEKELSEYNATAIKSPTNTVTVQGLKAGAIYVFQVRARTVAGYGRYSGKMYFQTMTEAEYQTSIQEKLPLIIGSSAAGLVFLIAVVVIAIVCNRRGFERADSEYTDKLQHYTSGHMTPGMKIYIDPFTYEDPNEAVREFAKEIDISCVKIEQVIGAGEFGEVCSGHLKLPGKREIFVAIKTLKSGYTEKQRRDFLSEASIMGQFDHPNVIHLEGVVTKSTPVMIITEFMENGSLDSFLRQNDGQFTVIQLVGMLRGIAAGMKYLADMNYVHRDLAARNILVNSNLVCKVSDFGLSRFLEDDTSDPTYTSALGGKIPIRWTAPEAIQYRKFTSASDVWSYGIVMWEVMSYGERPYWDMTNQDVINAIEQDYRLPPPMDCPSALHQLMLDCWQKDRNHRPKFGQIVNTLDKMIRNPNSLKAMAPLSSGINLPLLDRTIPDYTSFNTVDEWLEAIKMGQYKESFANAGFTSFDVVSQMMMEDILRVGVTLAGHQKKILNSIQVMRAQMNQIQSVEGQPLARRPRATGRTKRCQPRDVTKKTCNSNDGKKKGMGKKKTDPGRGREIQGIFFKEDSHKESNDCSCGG

c-Src = assay: as above
FGFR3 = FGFR3 (UniProt P22607); assay: as above
FGFR3, sequence (P22607 whole entry, looked up): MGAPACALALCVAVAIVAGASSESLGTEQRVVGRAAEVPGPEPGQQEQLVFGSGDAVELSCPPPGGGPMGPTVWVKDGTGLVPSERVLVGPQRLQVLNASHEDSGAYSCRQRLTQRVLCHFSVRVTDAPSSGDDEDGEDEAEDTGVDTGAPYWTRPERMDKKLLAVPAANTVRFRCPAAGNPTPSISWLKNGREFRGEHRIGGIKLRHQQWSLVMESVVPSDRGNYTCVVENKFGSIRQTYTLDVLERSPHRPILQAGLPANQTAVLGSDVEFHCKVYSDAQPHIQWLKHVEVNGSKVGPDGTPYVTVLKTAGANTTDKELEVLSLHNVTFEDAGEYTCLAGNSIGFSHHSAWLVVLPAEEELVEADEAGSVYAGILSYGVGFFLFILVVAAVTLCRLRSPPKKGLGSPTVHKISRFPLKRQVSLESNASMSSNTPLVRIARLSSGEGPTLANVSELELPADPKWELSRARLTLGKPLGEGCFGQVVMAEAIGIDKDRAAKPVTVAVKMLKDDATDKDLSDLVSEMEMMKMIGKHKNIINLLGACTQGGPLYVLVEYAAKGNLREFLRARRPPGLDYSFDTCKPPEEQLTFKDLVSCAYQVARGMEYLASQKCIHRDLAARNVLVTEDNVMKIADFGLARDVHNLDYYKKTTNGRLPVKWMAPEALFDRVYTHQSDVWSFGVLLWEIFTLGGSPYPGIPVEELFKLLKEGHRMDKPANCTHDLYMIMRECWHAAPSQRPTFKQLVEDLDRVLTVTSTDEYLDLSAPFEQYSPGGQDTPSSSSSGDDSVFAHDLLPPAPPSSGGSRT

Fes = Fes (UniProt P07332); assay: as above
Fes, sequence (P07332 whole entry, looked up): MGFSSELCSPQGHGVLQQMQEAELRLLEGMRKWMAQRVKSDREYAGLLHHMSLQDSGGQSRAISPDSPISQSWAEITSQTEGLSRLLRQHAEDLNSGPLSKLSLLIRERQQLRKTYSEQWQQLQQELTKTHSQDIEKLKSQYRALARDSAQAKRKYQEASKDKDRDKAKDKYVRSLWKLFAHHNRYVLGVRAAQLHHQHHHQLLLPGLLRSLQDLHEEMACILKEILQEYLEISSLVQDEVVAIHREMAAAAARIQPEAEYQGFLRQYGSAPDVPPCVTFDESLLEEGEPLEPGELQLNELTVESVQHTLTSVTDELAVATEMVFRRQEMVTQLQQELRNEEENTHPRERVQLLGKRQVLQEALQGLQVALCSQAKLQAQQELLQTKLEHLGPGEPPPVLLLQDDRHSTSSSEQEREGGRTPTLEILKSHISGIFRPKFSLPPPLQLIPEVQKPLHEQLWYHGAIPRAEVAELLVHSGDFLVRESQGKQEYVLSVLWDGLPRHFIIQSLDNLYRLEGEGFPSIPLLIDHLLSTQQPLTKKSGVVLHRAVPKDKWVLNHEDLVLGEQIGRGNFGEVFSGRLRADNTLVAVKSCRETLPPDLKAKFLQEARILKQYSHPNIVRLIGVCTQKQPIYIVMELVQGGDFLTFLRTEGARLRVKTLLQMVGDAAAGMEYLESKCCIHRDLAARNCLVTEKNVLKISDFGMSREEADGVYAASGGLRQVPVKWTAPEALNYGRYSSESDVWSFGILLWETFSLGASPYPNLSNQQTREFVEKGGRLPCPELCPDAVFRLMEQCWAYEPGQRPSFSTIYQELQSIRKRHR

Fyn = Fyn (UniProt P06241); assay: as above
Grb2 SH2 = Grb2 SH2 (UniProt P62993); assay: SH2 binding enrichment of the phosphorylated peptide, bacterial display (enrichment ratio); higher = better substrate or ligand; peptides without Tyr show the background
SHP2-C SH2 = assay: as above
c-Src SH2 = assay: as above
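For SH2 binding enrichment of the phosphorylated peptide, bacterial display in this document: peptide library displayed on the E. coli surface as eCPX fusions, selected cells deep-sequenced, score is each peptide's frequency after selection divided by its frequency in the input.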
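For phosphorylation enrichment, bacterial display in this document: 11-residue human phosphosite peptides and single-mutation variants displayed on the E. coli surface, counted by deep sequencing, each peptide's frequency after selection divided by its frequency in the unselected input library; frequency after pTyr selection over input frequency; kinase dosed for 20-30% of maximal phosphorylation in three min.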

Row | SH2 binding enrichment (Grb2 SH2) | SH2 binding enrichment (SHP2-C SH2) | SH2 binding enrichment (c-Src SH2) | Sequence | phosphorylation enrichment (EPHB1) | phosphorylation enrichment (Fer (mouse)) | phosphorylation enrichment (c-Abl (mouse)) | phosphorylation enrichment (AncSZ) | phosphorylation enrichment (Hck) | phosphorylation enrichment (MERTK) | phosphorylation enrichment (Jak2) | phosphorylation enrichment (FGFR1) | phosphorylation enrichment (EPHB2) | phosphorylation enrichment (c-Src) | phosphorylation enrichment (FGFR3) | phosphorylation enrichment (Fes) | phosphorylation enrichment (Fyn)
1 | 0.873 | 1.07 | 0.836 | GLSDPYVKIHL [SYT2_Y309] | 0.425 | 0.488 | 0.556 | 0.693 | 0.406 | 0.397 | 0.787 | 0.546 | 0.721 | 0.376 | 0.589 | 0.993 | 0.458
2 | 0.713 | 0.421 | 0.488 | QRVLLYVRRET [GRHL3_Y518] | 0.461 | 0.468 | 0.41 | 1.01 | 0.669 | 0.801 | 0.9 | 0.676 | 0.577 | 0.834 | 0.781 | 0.796 | 0.699
3 | 0.838 | 0.536 | 0.442 | CGLPRYRWLTH [TSPAN12_Y143_Y138C] | 0.47 | 0.438 | 0.453 | 0.848 | 0.525 | 0.461 | 0.669 | 0.435 | 0.645 | 0.357 | 0.476 | 0.929 | 0.707
4 | 0.985 | 0.996 | 1.47 | HHIDYYKETTN [FGFR1_Y654_K656E] | 1.03 | 0.893 | 0.878 | 1.13 | 0.799 | 0.866 | 0.979 | 1.09 | 0.814 | 0.997 | 0.935 | 1.39 | 0.646
5 | 1.15 | 0.828 | 0.717 | LFSLGYHQSRW [GANAB_Y396] | 0.647 | 0.584 | 0.638 | 1.04 | 0.855 | 0.649 | 0.767 | 0.567 | 0.724 | 0.454 | 1.02 | 1.16 | 0.726
6 | 0.807 | 0.708 | 0.525 | IDFARYWHGND [MMP11_Y162_D166N] | 0.556 | 0.423 | 0.504 | 0.918 | 0.479 | 0.372 | 0.564 | 0.508 | 0.486 | 0.345 | 0.551 | 0.835 | 0.431
7 | 1.05 | 0.823 | 0.63 | PESCFYKESWL [IQGAP2_Y630_L629F] | 0.772 | 0.973 | 0.766 | 1.51 | 0.555 | 0.538 | 0.941 | 0.707 | 0.671 | 0.516 | 1.31 | 1.57 | 0.616
8 | 0.742 | 0.562 | 0.547 | YRRITYYNWRH [PDE6B_Y556_H557Y] | 0.417 | 0.442 | 0.539 | 0.64 | 0.46 | 0.512 | 0.47 | 0.497 | 0.457 | 0.47 | 0.598 | 0.549 | 0.483
9 | 0.586 | 0.52 | 18.6 | TLERHYEELQA [SPTBN2_Y834] | 0.648 | 1.7 | 0.836 | 1.04 | 0.591 | 0.578 | 0.947 | 0.472 | 0.522 | 0.505 | 0.677 | 1.06 | 0.541
10 | 0.994 | 0.86 | 0.601 | DFFDLYGGEKK [PTPN11_Y66_F71K_YF] | 0.511 | 0.566 | 0.827 | 1.17 | 2.81 | 0.499 | 1.16 | 0.562 | 0.79 | 2.26 | 0.772 | 1.38 | 1.32
11 | 1.07 | 0.617 | 0.721 | PTKNDYWAMLA [WWOX_Y287] | 1.78 | 0.447 | 0.939 | 1.64 | 0.705 | 0.443 | 1.12 | 7.82 | 1.61 | 0.912 | 4.3 | 1.5 | 0.695
12 | 1.84 | 1.15 | 0.856 | CKRQFYLYKGK [RSPO4_Y112] | 0.333 | 0.431 | 0.438 | 0.836 | 0.43 | 0.331 | 0.746 | 0.427 | 0.49 | 0.312 | 0.704 | 0.926 | 0.432
13 | 0.816 | 0.598 | 0.609 | DAAEDYAEGVC [DHODH_Y194_R199C] | 0.801 | 0.765 | 0.917 | 1.31 | 0.559 | 0.492 | 1.19 | 0.658 | 0.713 | 0.559 | 0.895 | 1.24 | 0.566
14 | 0.731 | 0.556 | 0.518 | CEQELYSQLVY [WAS_Y102_W97C] | 4.86 | 11.2 | 1.14 | 1.9 | 6.75 | 5.03 | 1.22 | 3.8 | 5.74 | 5.28 | 3.67 | 1.81 | 6.54
15 | 1.02 | 0.98 | 0.683 | VDEERYDIEGK [TNNI3_Y112_A116G] | 0.737 | 0.561 | 0.896 | 1.44 | 0.623 | 0.491 | 1.3 | 0.539 | 0.74 | 0.509 | 0.754 | 1.3 | 0.506
16 | 0.924 | 0.673 | 0.454 | GEFFRYLAEVA [YWHAG_Y133_D129E_YF] | 0.46 | 0.51 | 0.747 | 0.873 | 0.431 | 0.438 | 1.02 | 0.498 | 0.501 | 0.442 | 0.767 | 1.17 | 0.575

Row | SH2 binding enrichment (Grb2 SH2) | SH2 binding enrichment (SHP2-C SH2) | SH2 binding enrichment (c-Src SH2) | Sequence | phosphorylation enrichment (EPHB1) | phosphorylation enrichment (Fer (mouse)) | phosphorylation enrichment (c-Abl (mouse)) | phosphorylation enrichment (AncSZ) | phosphorylation enrichment (Hck) | phosphorylation enrichment (MERTK) | phosphorylation enrichment (Jak2) | phosphorylation enrichment (FGFR1) | phosphorylation enrichment (EPHB2) | phosphorylation enrichment (c-Src) | phosphorylation enrichment (FGFR3) | phosphorylation enrichment (Fes) | phosphorylation enrichment (Fyn)
17 | 1.14 | 1 | 0.431 | HNGVSYYINLC [IGF2R_Y2024] | 0.805 | 0.577 | 1.15 | 1.43 | 0.597 | 0.513 | 1.35 | 0.605 | 0.541 | 0.419 | 1.1 | 1.5 | 0.581
18 | 0.917 | 0.605 | 0.729 | ADEEFYEIIAA [FEStide_F_2014] | 0.886 | 7.22 | 0.853 | 2.54 | 3.26 | 2.19 | 1.09 | 1.5 | 0.77 | 3.36 | 1.4 | 1.57 | 2.42
19 | 0.889 | 0.999 | 0.494 | KVNKIYHPDFI [LIG3_Y767_Y768H] | 0.39 | 0.395 | 0.473 | 0.542 | 0.488 | 0.443 | 0.574 | 0.398 | 0.417 | 0.43 | 0.539 | 0.627 | 0.417
20 | 0.695 | 0.52 | 0.367 | STEEQYRICQV [EFHC1_Y115_R118C] | 0.71 | 0.598 | 0.999 | 1.09 | 0.52 | 0.492 | 1.08 | 0.599 | 0.629 | 0.566 | 0.848 | 1.53 | 0.541
21 | 1.52 | 1.87 | 1.18 | AVLVQYYMEHH [PTPN11_Y80_E76V] | 2.43 | 0.516 | 0.708 | 0.987 | 0.875 | 0.89 | 0.821 | 0.753 | 1.32 | 0.596 | 0.868 | 1.21 | 0.673
22 | 1.22 | 1.02 | 0.907 | RNVFFYSFLLK [PTEN_Y178_Y174N_YF] | 0.861 | 0.697 | 1.23 | 1.29 | 0.565 | 0.757 | 1.59 | 0.586 | 0.738 | 0.508 | 1.31 | 1.72 | 0.656
23 | 1.69 | 1.45 | 1.13 | IHFAIYLLKFS [ARMC9_Y107_YF] | 0.561 | 0.303 | 0.668 | 0.891 | 0.521 | 0.414 | 1.03 | 0.363 | 0.457 | 0.499 | 0.684 | 1.06 | 0.458
24 | 0.997 | 0.703 | 0.493 | ELPEKYSQNIC [PKP2_Y626_Y631C] | 0.538 | 0.446 | 0.956 | 1.01 | 0.533 | 0.544 | 1.18 | 0.518 | 0.605 | 0.579 | 0.599 | 1.12 | 0.497
25 | 0.934 | 0.492 | 0.75 | LGLDECLDKLK [FMNL2_Y352_Y352C] | 1.05 | 1.31 | 1.7 | 1.91 | 1.31 | 1.09 | 2.01 | 1.28 | 1.37 | 0.92 | 1.54 | 1.85 | 1.04
26 | 0.473 | 0.565 | 0.565 | RSRRSYSCQVM [IGLL1_Y192] | 0.616 | 0.639 | 0.797 | 0.754 | 0.64 | 0.9 | 0.774 | 0.586 | 0.802 | 0.924 | 0.832 | 0.862 | 0.808
27 | 1.28 | 1.02 | 0.521 | EEKKKYYDAKI [CASP5_Y103_T106A] | 0.467 | 0.447 | 0.565 | 0.626 | 0.411 | 0.429 | 0.848 | 0.529 | 0.432 | 0.396 | 0.518 | 0.764 | 0.371
28 | 0.768 | 0.698 | 0.667 | LGGAMYFLEAD [PKHD1_Y452_E457D_YF] | 0.535 | 0.517 | 0.682 | 1.01 | 0.581 | 0.536 | 1.03 | 0.461 | 0.701 | 0.772 | 0.77 | 1.09 | 0.717
29 | 1.01 | 0.582 | 0.595 | LKGQVDILGRE [ASS1_Y359_Y359D] | 0.539 | 0.598 | 0.658 | 0.803 | 0.575 | 0.663 | 1.26 | 0.578 | 0.696 | 0.764 | 0.638 | 1.07 | 0.559
30 | 0.917 | 0.814 | 0.534 | IALNSYHSRNC [IFNGR1_Y397] | 0.383 | 0.347 | 0.599 | 0.584 | 0.469 | 0.469 | 0.521 | 0.464 | 0.492 | 0.4 | 0.525 | 0.715 | 0.417
31 | 0.951 | 1.13 | 1.06 | CTTIHYNYMFN [TP53_Y234_C238F] | 0.672 | 0.757 | 0.926 | 1.14 | 0.498 | 0.681 | 1 | 0.657 | 0.641 | 0.522 | 0.812 | 1.21 | 0.555
32 | 0.83 | 0.73 | 0.444 | SIVEDYRPPFF [ACVRL1_Y421_G416S_YF] | 0.578 | 0.485 | 0.821 | 1.01 | 0.38 | 0.473 | 0.85 | 0.435 | 0.46 | 0.45 | 0.646 | 1.01 | 0.378
